# Assay results published in US5691312A, “Pharmaceutical for subcutaneous or intramuscular administration containing polypeptides” (Behringwerke Aktiengesellschaft, priority 1989, dated 1997).
# Experiments:
# [1] = additive for sc or im administration of proteins; WO 86/06962 and EP-A-0,292,908; cited from earlier work
# [2] = Bioavailability and/or tolerability of polypeptides administered sc or im with added amino acid (general statements); format: in vivo, rats or rabbits; conditions: amino acid additives, sc or im administration
# Protocol: (§1) Each ml of the thawed solutions from Example 1 was administered sc and im (femoral biceps) in animals (rats or rabbits). In the case of im administration, the total volume of 1 ml was divided between four types of injection.
# (§2) After 0, 15, 30, 60, 120, 180, 240 and 340 minutes (r-t-PA mutant) or 0, 30, 60, 120, 180, 240, 300, 360, 420 and 450 minutes (r-t-PA, hirudin, urokinase AT III, F XIII, von Willebrand, EPO, PP4), blood samples (+ citrate) were taken. The blood samples were then immediately centrifuged and the resulting citrate plasma was frozen at -20° C. until the determination. The plasma concentration of the test substance was measured as follows:
# (§3) The area under the curve (AUC) was then calculated. This value is an expression of the bioavailability and makes possible comparison between the different presentation forms.
# [3] = Hemorrhages at the administration site, hirudin; format: in vivo, rat
# Protocol: as §1
# (§4) Number of animals with hemorrhages
# [4] = Hemorrhages at the administration site, urokinase; format: in vivo, rabbit; conditions: for Number of animals with hemorrhages: 0.05 M tris, 5 mg/kg
# Protocol: as §1, §4
# [5] = Death of animals after sc/im administration; format: in vivo; conditions: buffer 5 (0.05 M tris, 0.1 M NaCl pH 7.5, 0.1% Tween 80, 50 mg/ml hydroxylamine), rat, 3.3/8.2 mg/kg
# Protocol: as §1
# [6] = Bioavailability of t-PA in the rat (plasma concentration by ELISA, AUC); format: in vivo; conditions: n=2, 3.3/8.2 mg/kg
# Protocol: Each ml of the thawed solutions from Example 1 was administered sc and im (femoral biceps) in animals (rats or rabbits). In the case of im administration, the total volume of 1 ml was divided between four types of injection. […]
# as §2
# r-t-PA ELISA (Biopool, Sweden)
# as §3
# I. Bioavailability of t-PA in the rat
# [7] = presentation form according to the invention versus customary presentation forms
compound,measurement,setting,value
NO [hydroxylamine],tolerability,[1],limited tolerability
CN [methylamine],tolerability,[1],limited tolerability
"EPO: r-erythropoietin (EPO); 1 mg of EPO corresponds to 80,000 U of EPO antigen",influence on the bioavailability and/or improvement in the tolerability,[2],favorable influence
F XIII: F XIII (Fibrogammin) obtained from Behringwerke,influence on the bioavailability and/or improvement in the tolerability,[2],favorable influence
Hirudin,Number of animals with hemorrhages,"[3]; 0.05 M tris, 0.1 M NaCl, im, 10 mg/kg",3/3
same,animal died as a result of the hemorrhages,"[3]; 0.05 M tris, 0.1 M NaCl, im, 10 mg/kg, of 3 animals",1 animal
same,Number of animals with hemorrhages,"[3]; 0.05 M tris, 0.1 M NaCl, sc, 10 mg/kg",2/3
same,Number of animals with hemorrhages,"[3]; 0.2 M arginine, 0.2 M lysine pH 7.5, im, 10 mg/kg",0/3
same,Number of animals with hemorrhages,"[3]; 0.2 M arginine, 0.2 M lysine pH 7.5, sc, 10 mg/kg",0/3
same,hemorrhages at the administration site on sc and im administration,[3]; [7],distinctly less
same,influence on the bioavailability and/or improvement in the tolerability,[2],favorable influence
"PP4: PP4 (placenta protein 4) prepared by the process of EP 0,123,307",influence on the bioavailability and/or improvement in the tolerability,[2],favorable influence
Urokinase,Number of animals with hemorrhages,"[4]; 0.1 M NaCl pH 7.5, im",2/3
same,Number of animals with hemorrhages,"[4]; 0.1 M NaCl pH 7.5, sc",2/3
same,hemorrhages at the administration site on sc and im administration,[4]; [7],distinctly less
same,influence on the bioavailability and/or improvement in the tolerability,[2],favorable influence
antithrombin III,influence on the bioavailability and/or improvement in the tolerability,[2],favorable influence
t-PA: r-t-PA (Actilyse) purchased from Boehringer Ingelheim; tissue plasminogen activator,animals died,[5]; im,all animals died
same,animals died,[5]; sc,all animals died
same,influence on the bioavailability and/or improvement in the tolerability,[2],favorable influence
same,AUC + Variation (%),"[6]; buffer 1 (0.05 M tris, 0.1 M NaCl), im",358 ± 10%
same,AUC + Variation (%),"[6]; buffer 1 (0.05 M tris, 0.1 M NaCl), sc",36 ± 13%
same,AUC + Variation (%),"[6]; buffer 2 (idem buffer 1, pH 4.5), im",386 ± 2%
same,AUC + Variation (%),"[6]; buffer 2 (idem buffer 1, pH 4.5), sc",53 ± 14%
same,AUC + Variation (%),"[6]; buffer 3 (0.2 M arginine, 0.2 M lysine pH 7.5), im",756 ± 2%
same,AUC + Variation (%),"[6]; buffer 3 (0.2 M arginine, 0.2 M lysine pH 7.5), sc",423 ± 3%
same,AUC + Variation (%),"[6]; buffer 4 (0.2 M arginine, 0.2 M lysine pH 4.5), im",669 ± 17%
same,AUC + Variation (%),"[6]; buffer 4 (0.2 M arginine, 0.2 M lysine pH 4.5), sc",382 ± 11%
same,AUC + Variation (%),"[6]; buffer 7 (0.05 M tris, 0.1 M NaCl pH 7.5, 0.1% Tween 80, 3% dimethyl sulfoxide), im",184 ± 18%
same,AUC + Variation (%),"[6]; buffer 7 (0.05 M tris, 0.1 M NaCl pH 7.5, 0.1% Tween 80, 3% dimethyl sulfoxide), sc",87 ± 12%
same,AUC + Variation (%),"[6]; buffer 8 (0.2 M arginine pH 7.5), im",600 ± 4%
same,AUC + Variation (%),"[6]; buffer 8 (0.2 M arginine pH 7.5), sc",320 ± 2%
same,AUC + Variation (%),"[6]; buffer 9 (0.2 M lysine pH 7.5), im",610 ± 10%
same,AUC + Variation (%),"[6]; buffer 9 (0.2 M lysine pH 7.5), sc",290 ± 11%
"von Willebrand factor: prepared by the process of DE 3,904,354 (1 mg of vW corresponds to 100 U of vW antigen)",influence on the bioavailability and/or improvement in the tolerability,[2],favorable influence
